# Assay results from patent US20130224191A1, “NOTUM PROTEIN MODULATORS AND METHODS OF USE” (priority 2010, published 2013).
# T1: Notum (Homo sapiens, UniProt Q6P988)
# T1 sequence (Q6P988 20-496): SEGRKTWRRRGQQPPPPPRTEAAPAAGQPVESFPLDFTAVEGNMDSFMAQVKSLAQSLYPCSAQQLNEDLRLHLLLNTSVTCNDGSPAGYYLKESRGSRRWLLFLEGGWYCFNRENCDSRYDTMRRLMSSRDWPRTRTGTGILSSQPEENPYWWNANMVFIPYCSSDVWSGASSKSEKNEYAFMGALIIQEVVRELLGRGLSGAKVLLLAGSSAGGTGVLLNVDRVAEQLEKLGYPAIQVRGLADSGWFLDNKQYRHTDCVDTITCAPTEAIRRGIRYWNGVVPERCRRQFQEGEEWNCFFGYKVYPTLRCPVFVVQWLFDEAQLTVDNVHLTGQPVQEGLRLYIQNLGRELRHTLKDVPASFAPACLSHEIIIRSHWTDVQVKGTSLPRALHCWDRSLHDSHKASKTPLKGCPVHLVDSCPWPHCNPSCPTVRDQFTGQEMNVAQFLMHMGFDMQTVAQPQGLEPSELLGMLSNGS
# T2: human Notum (recombinant or endogenous; construct not specified at the place of use) (human, UniProt Q6P988 20-496)
# T2 construct: also called hNotum; human Notum protein
# T2 sequence: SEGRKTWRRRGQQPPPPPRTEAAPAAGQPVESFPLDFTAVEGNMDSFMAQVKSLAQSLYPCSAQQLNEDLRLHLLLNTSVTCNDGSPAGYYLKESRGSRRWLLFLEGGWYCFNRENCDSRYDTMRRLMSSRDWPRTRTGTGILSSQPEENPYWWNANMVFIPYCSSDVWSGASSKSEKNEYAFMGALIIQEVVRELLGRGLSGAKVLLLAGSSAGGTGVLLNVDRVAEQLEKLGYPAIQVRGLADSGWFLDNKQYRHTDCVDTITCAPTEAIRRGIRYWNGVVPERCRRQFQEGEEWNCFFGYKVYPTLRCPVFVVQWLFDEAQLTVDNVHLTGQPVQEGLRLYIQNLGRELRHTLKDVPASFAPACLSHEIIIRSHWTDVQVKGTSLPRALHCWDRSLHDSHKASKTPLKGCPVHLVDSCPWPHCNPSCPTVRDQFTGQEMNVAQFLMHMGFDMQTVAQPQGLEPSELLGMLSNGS
# Tests used:
# [1] = molecular target: T1, Notum; experiment: Bio-layer interferometry on ForteBIO RED; format: binding; conditions: 250, 125 and 62.5 nM antigen
# Procedure: (§1) Three methods were used to characterize the affinity of humanized SC2.D2.2 relative to its analogous mAb with the murine variable region. First, binding signal was measured for a fixed amount of antibody probed against serial dilutions of antigen in an ELISA format. […] Second, the affinity of murine SC2.D2.2 was measured by Biacore using surface plasmon resonance (SPR) to provide the results set forth in FIG. 32A. Based on a concentration series of 12.5, 6.25, 3.125, 1.5625, 0.78125 nM and using a 1:1 Langmuir binding model, the Kd of the antibody binding to antigen was estimated to be less than 0.1 nM. Long off-rates for this interaction made accurate determination of affinity through kinetics difficult. The murine antibody was then directly compared to the humanized derivative using bio-layer interferometry analysis on a ForteBIO RED (ForteBIO, Inc.) with a concentration series of 250, 125, and 62.5 nM antigen.
# [2] = molecular target: T2, human Notum (recombinant or endogenous; …); experiment: bio-layer interferometry (ForteBIO RED), fixed antibody, antigen at 250, 125 and 62.5 nM by the text
# Procedure: Three methods were used to characterize the affinity of humanized SC2.D2.2 relative to its analogous mAb with the murine variable region. First, binding signal was measured for a fixed amount of antibody probed against serial dilutions of antigen in an ELISA format. Measured signal levels were substantially similar (data not shown). Second, the affinity of murine SC2.D2.2 was measured by Biacore using surface plasmon resonance (SPR) to provide the results set forth in FIG. 32A. […] Long off-rates for this interaction made accurate determination of affinity through kinetics difficult. The murine antibody was then directly compared to the humanized derivative using bio-layer interferometry analysis on a ForteBIO RED (ForteBIO, Inc.) with a concentration series of 250, 125, and 62.5 nM antigen.
# [3] = molecular target: T1, Notum; experiment: ELISA, fixed antibody against serial dilutions of antigen; format: binding
# Procedure: as §1
molecule,measurement,setting,value
"hSC2.D2.2 (antibody, human IgG1, V domains shown, Humanized variable regions cloned into vectors with human IgG1 and kappa constant regions; also called humanized SC2.D2.2) VH: EVQLVESGGGLVQPGGSLRLSCAASGFTFSSYGMNWVRQAPGKGLEWVSYISSSTVTTYYADSVKGRFTISRDNAKNSLYLQMNSLRDEDTAVYYCSRQNWDGGYFDVWGAGTTVTVSS VL: DIVMTQSPLSLPVTPGEPASISCRASKSVSSSGYSYMHWYLQKPGQSPQLLIYLASNLESGVPDRFSGSGSGTDFTLKISRVEAEDVGVYYCQHSRALPLTFGAGTKLELKR","affinity, binding curves",[1],excellent affinity
same,binding result,[2],binds
same,binding signal relative to antibody with murine variable region,[3],substantially similar
